Assay results as given in PMC7982615, “Phase 1 study of telisotuzumab vedotin in Japanese patients with advanced solid tumors” (Cancer Medicine, 2021).
“Also recorded” adds a separate entry of the source.

Assay: Safety and tolerability (TEAEs, DLTs, AESIs) in phase 1 dose-escalation study of teliso‐v
Type: in vivo, human
Settings: for Dose‐limiting toxicity (DLT) events: 2.4 and 2.7 mg/kg IV Q3W, dose escalation
Experimental: This phase 1, open‐label, dose‐escalation clinical trial was conducted at two sites in Japan (NCT03311477). Enrollment began on November 6, 2017, and the trial was completed on March 4, 2019.
Escalation into the higher dose level proceeded if the first three evaluable patients in the lower dose level completed the first‐cycle (for at least 21 days) safety assessment without experiencing a dose‐limiting toxicity (DLT). DLT evaluations for dose escalation and determination of RP2D were carried out by investigators, study sponsor, and an independent safety monitor. […] No premedication was required. On the basis of confirmed availability of archival tumor tissue at enrollment, patients were retrospectively analyzed for c‐Met expression and MET amplification. c‐Met expression was determined by immunohistochemistry (IHC), and MET amplification was determined by fluorescence in situ hybridization or sequencing of plasma or tumor DNA.
Safety assessments included treatment‐emergent adverse events (TEAEs) graded according to the National Cancer Institute Common Terminology Criteria for Adverse Events version 4.03. TEAEs, vital signs, physical examinations, electrocardiograms, laboratory tests, and ECOG performance status were monitored during the study. Any grade ≥3 study drug‐related nonhematologic toxicity was documented as a DLT, except as follows: grade 3 nausea or vomiting lasting ≤48 hours that was successfully managed with antiemetics; grade 3 diarrhea successfully managed with antidiarrheal; grade 3 constipation lasting ≤7 days; grade 3 acute infusion reaction that resolved to grade ≤1 within 24 hours after the end of dosing; grade 3 and 4 laboratory tests including but not limited to lactate dehydrogenase, alkaline phosphatase, and gamma‐glutamyl transferase that were considered nonclinically significant by the investigator; liver function test abnormalities; grade 3 and 4 electrolyte imbalance unless associated with clinical symptomatology despite supplementation; and grade 3 hyperglycemia that was manageable without hospitalization. The following hematologic toxicities were documented as a DLT: any grade 4 hematologic toxicity (excluding febrile neutropenia or leukopenia lasting for ≤7 days, or lymphopenia); anemia requiring red blood cell transfusion; thrombocytopenia requiring platelet transfusion; grade 3 thrombocytopenia in the presence of grade ≥2 bleeding; and grade ≥3 febrile neutropenia. Toxicity management criteria are described in the Supplementary appendix.
All data were summarized and tabulated by dose cohort. Categoric data were summarized in terms of frequency counts and percentages. Continuous data were summarized using descriptive statistics, including number of observations, mean, standard deviation, median, minimum, and maximum. No formal statistical analysis was performed for efficacy variables, which were all exploratory in nature. ORR was defined as the proportion of patients with a confirmed partial response (PR) or complete response (CR). Duration of response was defined as time from a patient's initial objective response to the first date of disease progression (PD) or death. The overall disease control rate was defined as the proportion of patients with CR, PR, or stable disease (SD). […] PFS was estimated using the Kaplan–Meier method. Efficacy analyses are presented with two‐sided exact 95% binomial CI.

[1] = total, N = 9, listed as teliso-v
[2] = total, N = 9, listed as telisotuzumab vedotin
[3] = total, N = 9, listed as teliso‐v

Substance: Teliso‐v: antibody‐drug conjugate: anti–c‐Met humanized monoclonal antibody ABT‐700 coupled to monomethyl auristatin E through a valine‐citrulline linker, drug:antibody ratio approximately three
- Dose‐limiting toxicity (DLT) events: no DLTs were reported; also recorded: no DLTs observed
- Dose‐limiting toxicity (DLT) events (listed as telisotuzumab vedotin): no dose‐limiting toxicity events were observed
- Hematologic AEs (AESI) (2.4‐mg/kg dose level): 33%
- Peripheral neuropathy events (AESI) (2.4‐mg/kg dose level): three
- Hematologic AEs (AESI) (2.7‐mg/kg dose level): 67%
- Ocular AESIs (2.7‐mg/kg dose level): three
- Peripheral neuropathy events (AESI) (2.7‐mg/kg dose level): three
- Frequency of corneal epithelium disorder (Japanese patients, four of nine): 44.4%
- AEs leading to withdrawal of consent (N = 9): three
- Dry eye (ocular AESI) (N = 9): one
- Keratitis (ocular AESI) (N = 9): one
- Patients with at least one TEAE (N = 9): nine
- Patients with at least one TEAE related to teliso‐v (N = 9): nine
- Patients with serious AEs (N = 9): two
- Punctate keratitis (ocular AESI) (N = 9): two
- Serious AEs, number of events (N = 9): Three
- Visual impairment (ocular AESI) (N = 9): one
- Maximum tolerated dose (doses up to 2.7 mg/kg Q3W, 3 + 3 design): not reached
- Deaths (either dose level): No deaths were reported
- Recommended phase 2 dose (RP2D) (every 3 weeks, Japanese patients): 2.7 mg/kg
- Ocular AESIs (grade 1 or 2, total, N = 9): 44%
- TEAE leading to treatment discontinuation (grade 2, teliso‐v related serious AE, 2.7‐mg/kg dose level): gait disturbance
- Peripheral neuropathy events (AESI) (grades 1 and 2, total, N = 9): 67%
- Alanine aminotransferase increased, TEAE regardless of relationship (total, N = 9): 2 (22) n (%)
- Alanine aminotransferase increased, TEAE related to teliso‐v (total, N = 9): 2 (22) n (%)
- Alopecia, TEAE regardless of relationship (total, N = 9): 2 (22) n (%)
- Alopecia, TEAE related to teliso‐v (total, N = 9): 2 (22) n (%)
- Anemia, TEAE regardless of relationship (total, N = 9): 2 (22) n (%)
- Aspartate aminotransferase increased, TEAE regardless of relationship (total, N = 9): 2 (22) n (%)
- Aspartate aminotransferase increased, TEAE related to teliso‐v (total, N = 9): 2 (22) n (%)
- Back pain, TEAE regardless of relationship (total, N = 9): 2 (22) n (%)
- Constipation, TEAE regardless of relationship (total, N = 9): 2 (22) n (%)
- Decreased weight, TEAE regardless of relationship (total, N = 9): 33%
- Decreased white blood cell count, TEAE regardless of relationship (total, N = 9): 33%
- Decreased white blood cell count, TEAE related to teliso‐v (total, N = 9): 33%
- Diarrhea, TEAE regardless of relationship (total, N = 9): 2 (22) n (%)
- Fatigue, TEAE regardless of relationship (total, N = 9): 2 (22) n (%)
- Fatigue, TEAE related to teliso‐v (total, N = 9): 2 (22) n (%)
- Hypoalbuminemia, TEAE regardless of relationship (total, N = 9): 2 (22) n (%)
- Malaise, TEAE regardless of relationship (total, N = 9): 2 (22) n (%)
- Malaise, TEAE related to teliso‐v (total, N = 9): 2 (22) n (%)
- Neutrophil count decreased, TEAE regardless of relationship (total, N = 9): 2 (22) n (%)
- Neutrophil count decreased, TEAE related to teliso‐v (total, N = 9): 2 (22) n (%)
- Peripheral neuropathy, TEAE regardless of relationship (total, N = 9): 2 (22) n (%)
- Peripheral neuropathy, TEAE related to teliso‐v (total, N = 9): 2 (22) n (%)
- Punctate keratitis, TEAE regardless of relationship (total, N = 9): 2 (22) n (%)
- Punctate keratitis, TEAE related to teliso‐v (total, N = 9): 2 (22) n (%)
- Weight decreased, TEAE regardless of relationship (total, N = 9): 3 (33) n (%)
- Weight decreased, TEAE related to teliso‐v (total, N = 9): 2 (22) n (%)
- White blood cell count decreased, TEAE regardless of relationship (total, N = 9): 3 (33) n (%)
- White blood cell count decreased, TEAE related to teliso‐v (total, N = 9): 3 (33) n (%)
- Decreased appetite, TEAE regardless of relationship [1]: 3 (33) n (%)
- Nausea, TEAE regardless of relationship [1]: 3 (33) n (%)
- Peripheral sensory neuropathy, TEAE regardless of relationship [1]: 4 (44) n (%)
- Decreased appetite, TEAE related to teliso‐v [2]: 33%
- Nausea, TEAE related to teliso‐v [2]: 33%
- Peripheral sensory neuropathy, TEAE related to teliso‐v [2]: 44%
- Decreased appetite, TEAE regardless of relationship [3]: 33%
- Decreased appetite, TEAE related to teliso‐v [3]: 3 (33) n (%)
- Nausea, TEAE regardless of relationship [3]: 33%
- Nausea, TEAE related to teliso‐v [3]: 3 (33) n (%)
- Peripheral sensory neuropathy, TEAE regardless of relationship [3]: 44%
- Peripheral sensory neuropathy, TEAE related to teliso‐v [3]: 4 (44) n (%)
